Source: the nanobody polyreactivity screen of Harvey et al. (2022)

Experiment: yeast display, Sf9 membrane polyspecificity reagent, FACS + sequencing; frameworks hold sequencing errors
Outline: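 Nanobodies came from a synthetic yeast display library in Saccharomyces cerevisiae BJ5465, induced with galactose for 36–48 hours and stained for 1 hour at 4 °C with 10% biotinylated, detergent-solubilized Sf9 membrane reagent. Cells were enriched on streptavidin microbeads and then FACS-sorted, with low and high (top ~1%) gates set on anti-HA fluorescence for expression and streptavidin fluorescence for reagent binding. Each polyreactivity label reflects the gate a clone came from. Genes were amplified by colony PCR, sequenced by MiSeq 2 × 250 and filtered by CDR length.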

Sequence | polyreactivity (PSR sort gate)
QVQLVESGGGLVQAGGSLRLSCAASGFTFGHNDMGWYRQAPGKERELVASITQSGGSTYYADSVKGRFTISRDNAKNTVYLQMNSLKPEDTAVYYCAKDLYQSAFITKYDYWGQGTQVTVSS | low polyreactivity
QVQLVESGGGLVQAGGSLRLSCAAYGYTFDSYTIGWYRQAPGKERELVAAITRSGSSTYYADSVKGRFTISRDNAKNTVYLQMNSLKPDDTAVYSCAAGWRRADGIEYWYGYWGQGTQVTVSS | high polyreactivity
QVQLVESGGGLVQAGGSLRLTCAASGLIFGYNAMGWYRQAPGKEREFVAGISVIDGRTYYADSVKGRFTISRDNAKNTVYLQMISLKPEDTAVYYCAADRWYKYYFLTYGYWGQGTQVTVSS | low polyreactivity
QVQLVESGGGLVQAGGSLRLSCAASGLTFSKYVMGWYIQAPGKERELVAAITWSGGRTYYADSVKGRFTISRDNAKNTVYLQMNSLKPEDTAVYYCNRKLKGLGYEYDYWGQGTQVTVSS | high polyreactivity
QDQLVESGGGLVQAGRSLRLSCAASGSIYAFYAMGWYRQAPRKERELVAAISSRGGRTYYADSVKGRFTISRDNAKNTVYLQMNRLKPEETAVYYCAALYWRYLGYPVVRYYYWGQGTQVNVSS | high polyreactivity
QVQLVESGGGLVQAGGSLRLSCAASGSTFYYYAMGWYRQAPGKERELVATISRSTARTFYADSVKGRFTISRDNAKNTVYLQMNSLKPEDTAVYYCAATSYVSVYPSYYRFGTYGYWGQGTQVTVSS | high polyreactivity
QVQLVESGGGLVQAGGSLRLSCADSARIFSFNTMGWYRQAPGKETELVAAISYRGRTYYADSVKGRFTISRDNAKKTVYLQMNSLKPEDTAVYYCIAVYGYWYGSWGQGTQVTVSS | high polyreactivity
QVQLVESGGGLVQAGGSLRLSCAASGSTFYVNTLGWYRQAPGKERELVAAISGSGTSTYYADSVKGRFTISRDNAKNTVYLQMNSLKPEDTAVYYCNKYQLVRTYGSYSYYYWGQGTQVTVSS | high polyreactivity
QVQLVESGGGLVQAGGSLRLICAASGRNFSGNAMGWYTQAPRKERELVAAISTGGSTNYADSVKGRFTISRDNAKNTVYLHMNSLKQEDTAVYYCAADEWRFPSYAYYYWGQGTQVNVSS | low polyreactivity
QVQLVESGGGLVQAGGSLRLSCAASGSISLVYAMGWYRQATGKERELVAVINHADDTSYADSVKGRFTISRDNAKNTVYLQMNSLKPEDTADYYCAAESSYFVALTQFYTVEFYYWGQGTQLTVSS | low polyreactivity
QDQLVESGGGLVQAGGSLRLSCAASGRIVSDYAMGWYRQAPGKERELVARISRSDGSSYYADSVKGRFTISRDNAKNTVYLQMNSLKPEDTAVYYCAAQWTDGRRDHWWDKGFYYWGQGTQVTVSS | low polyreactivity
QVHLVESGGGLVQAAGSLRLSCAASGITFAPYAMGWYRQAPGKERELVAGINTGGSTYYADSVKGRFTISRDKEKNTVYLQMNSLKPEDTAFYYCATDSYPADQDIPGCDYWGQGTQVTVSS | low polyreactivity
QVQLVESGGGLVQAGGSLRLSCAASGRIFDGNAMGWYRQAPWKERELVAAINRSGGRTYYADSVKGRFTISRDNAKNTVYLQMNSLKPEDTAVYYCATPYAGGTPADPGYDYWGQGTQVTVSS | high polyreactivity
QVQLVESGGGLVQAGGSLRLSCASSGSIFSTYAMGWYRQAPGKEMELVATIRRGGSTYYADSVKGPFTISRDNAKNTVYLQMNSLKPEDTELYYCAAAGGRFIRYGYWGQGTQVTVSS | high polyreactivity
QVQLVESGGGLVQSGGSLRLSCAASGRIFVPNAMGWYRQAPGKERELVAAITGSGGSTYADSVKGRFTISRDNAKNTVYLQMNSLNPEDTAVYYCAKKTWYSYYWGQGTQVTVSS | high polyreactivity
QVQLVESGGGLVQAGGSLRLSCAASGLTFQNNARGWYRQAPGKERELVAAISDGGSTYYADSVKGRFTISRDNAKNTVYLQMNSLKPEDTGVYYCNADYGGWDYLYTSDQDNEYGYWGQGTQVTVSS | low polyreactivity
QVQLQESGGGLVQAGGSLRLTCAASGTIFRFRYMGWPRQAPGKERELVAGINGGTTTYYADSVIGRFTISRDNAKNTVYLQRNSLKPDDTAVYNCAAGASRLTYYDYWGQGTQVTVSS | low polyreactivity
QVQLVESGGGLVQAGGSLRLSCAASGSIFPWYAMGWYRQAPGKEKELVAAIRWRDGRTYYADSVKGRFTISRDNAKNTVYLQMNSLKPEDTAVYYCAAVSTDKYVYGVDVYLYDYWGQGTQVTVSS | low polyreactivity
QVQLVESGGGLVQAGGSLRLSCAASGRTFRFYAMGWYRQAPGKERELVAAIRWSGGSTYYADSVKGRFTISRDNAKNTVYLQMNSLKPEDTAVYYCNADNRWPFGGWYGLDYWGQGTQVTVSS | high polyreactivity
QVQLVESGGGLVQAGGSLRLSCAASGSIFPYYAMGWNRQAPGKERELVATITSRGGSTYYADSVKGRFTISRDNAKNTVYLQMNSLKPEDTAVYYCAKEYRYYRRRYDYWGQGTQVTVSS | high polyreactivity
QVQLVESGGGLVQAGGSLRLSCAASGLIFYSNAMGWYRQAPGKERELVAAISFNSGSTYYADSVKGRFTISRDNAKNTVYLQMNSLKPEDTAVYYCAKKRRFVVLSVQGDYWGQGTQVTVSS | low polyreactivity
QVQLVESGAGLVQAGGSLRLSCAASGSTFSRYAMGWYRQAPGKERELVAAISSRGGSTYYADSVKGRFTISRDNAKNTVYLQMNSLKPEDTAVYYCNALTSYQNHVYPYDYWGQGTQVTVSS | high polyreactivity

Sequence | polyreactivity (PSR sort gate)
EVQLVESGGGLVQPGGSLRLSCASSGYIYRRYRMGRYRQAPGKGREFVAAISGGSSTNYADSVKGRFTISRDNSKNTLYLQMKSLRAEDTAVYYCEGYKIDSDPRVYWGQGTQVTVSS | low polyreactivity
QVQLVESGGGLVQAGGSLRLSCAASGRIFTTYVMGWYRQAPGKERELVAAISARGSTYYADSVKGRFTISRDNAKNTVYLEMNSLKPEDTAVYYCAAGHRLPVYYGYPRATYNYWGQGTQVTVSS | low polyreactivity
QVQLVESGGGLVQAGGSLRLSCAASGRIFDNNAMGWYIQAPGKERELVAAIDWPGGSTDYADSVKGRFTISRDNAKNTVYLQMNSLIPEDTAVYYCVAGNVPYWHGNSYDYWGQGTQVTVSS | low polyreactivity
QVQLVESGGGLVQAGGSLRLSCAASGYIFVVNAMGWYRQAPGKERELVAAIDWGGGSTYADSVKGRFTISRDNAKNTVYLQMYSLKPEDTAVYYCAADLWPYPNDYWGQGTQVTVSS | low polyreactivity
QVQLVESGGGLVQAGGSLRLICAASGIIFAYYAMGWYRQSPGKERELVAAITWSGGRTYYADSVKGRFTISRDNAKNTVYLQMNSLKPEDTSVYYCAARFTRQMYYWGQGTQVTVSS | high polyreactivity
QVQLVESGGGLVQAGGSLRLSCAASGSTFDYNAMGWYRQAPGKERELVAAITSTGGNTYYADSVKGRFTISRDHAKNTDYLQMNSLKPEDTAVYYCNKDVARYPYGNFDYWGQGTQVTVSS | low polyreactivity
QVQLVESGGGLVQAGGSLRLSCAASGRIFRSNAMGWYRQAPGKERELVAAISGSGSTTNYADSVKGRFTISRDNAKNTVYLQMNSLKPEDTAVYYCATGKRGVSGRGFRYDYWGQGTQVTVSS | high polyreactivity
QVQLVESGGGLVQAGGSLRLSCAASGITFGYYAMGLYRQAPGKERELVAAISWSGGRTYYADSVKGRLTISRDNAKNTVYLQMNSLKPEDTAVYYCATRYPVRRGSGPSYDYWGQGTQVTVSS | high polyreactivity
QVQLEESGGGLVQAGGSLRLSCAASGSIFNRYAMGWYRQAPGKEWELVAAISRSGGRTYYADSVKGRFTISRDNAKNTVYLQMNSLKPEDTAVYYCAADKYYRQHEYDYLGQGTQVTVSS | high polyreactivity
QVQLVESGGGLVQAGGSLRLSCAASGRTFYRYAMGWYRQAPGKERELVAAITTSGGSTYYADSVKGRFTISRDNAKNTVYLQMNSLKPEDTSVYYCSATYYGYHIRDDYWGQGTQVTVSS | low polyreactivity
QVQLVESGGGLVQAGGSLRLSCAASGSTFPRYAMAWYRQAPGKERELVAAISSSGRTYYADSVKGRFTISRDNAKNTFYLQMNSLKPEDTAVYYCNAPVARGEASYYWGQGTQVTVSS | high polyreactivity
QDQLVESGGGLVQAGGSLRLSCAASGSIFERYTMGWSRQAPGKERELVAAITTNGGSTYADSVKGRFTISRDNAKNTVYLQMNTLKPEDTADYYCNVDVYLYAKEYDYWGQGTQVTVSS | high polyreactivity
QVQLVESGGGLVQAGGSLRLSCAASGSIFATNAMGWYRQAPGKERELVASISSGGGSTYYADSVKGRFTISRDNAKNTVYLQMNSLKPEDTAVYYCARRIGHGSRPYWLETWRYPYDYWGQGTQVTVSS | low polyreactivity
QVQLVESGGGLVQAGGSLRLSCAASGRIFLQYAMGWYRPAPGKERELVAAISRSGGSTYYADSVKGRFTISRDTAKNSVYLQMNSQKPEDTAVYYCAAALFGNRYYYWGQGTQVTVSS | low polyreactivity
HVQLVESGGGLVQAGGSLRLSCAASGRSFYKYAMGWYRQAPGKERELVAAISLRGARTYYADSVKGRFTISRDNATNTVYLQMHSLKPEETAVYYCAADNYYVRYAYNKSYSWGQGTQVTGSS | low polyreactivity
QVQLVETGGGLVQAGGSLRLSCAASGSIFQYYAMGSYRQAPGKERELVAAISSGGRTNYADSVKGRFTISRENAKNSVYLQMNSLKPEDTAVYYCAAARYYYQVYRWEYDYWGQGTQVTVSS | high polyreactivity
QVQLVESGGGLVQAGGSLRLSCAASGFIFRYYAMGWYRQAPGKERELVATINSSGGSTYYADSVKGRFTISRDNAKNTVYLQMNSLKPEDTAVYYCYAGYVSYRGQSRYEYWGQGTQVTVSS | high polyreactivity
QVQLVESGGGLVQAGGSLRLSCAASGFTFYTYVMGWYRQAPGKERELVAAISGRGGSTYYADSVKGRFTISRDNAKNTVYLQMNSLKPEDTAVYYCATVRSYSRVVGYDYWGQGTQVTVSS | high polyreactivity
QVQLVESGGGLVQAGGSLRLSCAASGSIISVYVMGWYRQAPGTERELVASITSGASTNYADSVKGRFTISRDNETNTVYLQMNSLKPEDTAVYYCAARDWYDGFYYWGQGTQVTVSS | low polyreactivity
QVKLEESGGGLVQAGGSLRLSCAASGSIFVVNAMGRYRPAPGKERELVDTITESGGSTYYADSVKGRFTISRDNAKNTVYLQMNSLKPEDTAVYYCAAYWHHKGDYWGQGTQVTVSS | low polyreactivity
QVQLVETGGGLVQAGGSLRLSCAASGRIFWRNDMGWYRQAPGKERELVAAISGSGGSTSYADSVKGRFTISRDNAKNTVYLQLNSLKPEDTAVYYFAADSESVGYEYWGQGTQVTVSS | high polyreactivity
